Data: patent US20240343803A1 (SHANDONG SIMCERE BIOPHARMACEUTICAL, published 2024)

How the values were obtained:
[1] = target: T1, human PVRIG-mFc protein (Acro, PVG-H5253) (human, UniProt Q6DKI7 41-171, limits assumed); assay: competition FACS; blocked: human PVRIG-mFc binding to CHO-K1-CD112 cells
T1 construct: bought reagent; also called PVRIG-ECD-mFc
T1 sequence (looked up): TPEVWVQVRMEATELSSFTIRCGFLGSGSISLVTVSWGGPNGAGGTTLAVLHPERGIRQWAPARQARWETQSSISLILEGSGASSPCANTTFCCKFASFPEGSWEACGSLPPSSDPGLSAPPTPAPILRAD
How it was run: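 CHO-K1-CD112 cells stained with Zombie violet were added to the mixture for another 30 min at 4° C, and bound PVRIG-mFc was detected with PE goat anti-mouse IgG Fc (1:250) as mean fluorescence intensity on a BD Canto II. IC50 values were read off the resulting competition curve.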

[2] = target: T2, human PVRIG-his (AcroBiosystems, Cat NO. PVG-H52H4) (human, UniProt Q6DKI7 41-171, limits assumed); assay: competition ELISA on coated human PVRIG-his; blocked ligand human PVRL2-mFc
T2 construct: treated as the same protein; also called human PVRIG-His protein; Human PVRIG-His, Acro C227P1-9ARF1-T4
T2 sequence (looked up): T1 sequence (looked up)
Procedure: The ELISA plate was pre-coated with 100 μL/well of 0.5 μg/mL human PVRIG-his protein (AcroBiosystems, Cat NO. PVG-H52H4). The tested anti-PVRIG antibodies were diluted from the highest concentration of 16 nM (two-fold concentration). The diluted antibodies were mixed with 18 ng/ml human PVRL2-mFc (AcroBiosystems, Cat NO. CD2-H5257) in equal volume, added into the plate (100 μL/well), and incubated with shaking at room temperature for 2.0 hours. […] A HRP substrate, TMB (Thermo, Cat NO. 34029) was added into wells after washing the plate again for color development. After adding a termination solution to terminate the reaction, the absorbance value was read by a microplate reader (MD i3×). An inhibiting curve was drawn with concentration of antibodies as the abscissa and the corresponding OD value as the ordinate. The IC50 value was calculated by using a Four Parameter Logistic Fit (GraphPadPrism9). The smaller the IC50 value, the stronger the ability of the antibodies inhibits the binding between PVRIG and PVRL2. The positive and negative controls are the same as in Example 8.
The methods refer to Example 11. The inhibiting activity of the humanized antibodies was normalized to the corresponding parental antibodies. If the percentage value is higher than 100%, the inhibiting effect of humanized antibodies is better than that of parental antibodies.

[3] = target: T3, human TIGIT ECD-his (fusion protein of extracellular domain of human TIGIT and His-tag) (human); assay: BIAcore kinetics
T3 construct: entry includes the signal peptide, limits not readable here
T3 chain: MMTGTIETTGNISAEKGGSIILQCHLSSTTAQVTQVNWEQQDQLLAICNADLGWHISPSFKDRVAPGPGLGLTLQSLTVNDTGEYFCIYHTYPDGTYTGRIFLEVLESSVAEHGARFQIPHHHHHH

[4] = target: T4, full-length human TIGIT on CHO-K1 cells (CHO-K1 human TIGIT) (human, UniProt Q495A1 22-244); assay: FACS, high expression strain
T4 construct: NCBI XP_024309156.1; entry includes the signal peptide; also called high expression strain 1D2; medium expression strain 2D10
T4 sequence: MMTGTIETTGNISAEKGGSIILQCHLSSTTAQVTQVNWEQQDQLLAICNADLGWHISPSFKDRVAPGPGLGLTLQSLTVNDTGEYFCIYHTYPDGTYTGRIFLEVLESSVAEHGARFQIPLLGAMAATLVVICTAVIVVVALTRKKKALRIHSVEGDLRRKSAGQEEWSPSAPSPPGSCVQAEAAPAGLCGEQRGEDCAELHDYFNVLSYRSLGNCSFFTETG
Procedure: The collected cells were washed once with PBS (Hyclone, CAT #SH30256), resuspended to 2×10⁵/50 μL with 1% BSA-PBS. The antibodies were diluted to 80 nM with 1% BSA-PBS (diluted by 3-fold serial dilution for 12 concentration points). The 50 μL cells were then mixed with 50 μL diluted antibodies, and then incubated at 4° C. for 60 minutes. […] After washing twice with PBS, the cell samples were resuspended with 1% BSA-PBS, 100 μL/well and then analyzed by flow cytometry (BD, Canto II). […] [0298] (c) The effect of anti-TIGIT chimeric antibodies blocking the interaction between Bio-CD155-His and CHO-K1 human TIGIT high expression cell strains detected by FACS

[5] = target: T5, full-length cynomolgus monkey TIGIT on CHO-K1 cells (CHO-K1 cynomolgus monkey TIGIT) (cynomolgus monkey); assay: FACS, CHO-K1 cynomolgus monkey TIGIT cells
T5 construct: NCBI XP_015300911.1; also called cynomolgus monkey TIGIT cells
Procedure: The collected cells were washed once with PBS (Hyclone, Cat NO. SH30256), resuspended to 2×10⁵/50 μL with 1% BSA-PBS. The antibodies were diluted to 80 nM with 1% BSA-PBS (diluted by 3-fold serial dilution for 12 concentration points). The 50 μL cells were then mixed with 50 μL diluted antibodies, and then incubated at 4° C. for 60 minutes. […] After washing twice with PBS, the cell samples were resuspended with 1% BSA-PBS, 100 μL/well and then analyzed by flow cytometry (BD, Canto II).

[6] = target: T4, full-length human TIGIT on CHO-K1 cells …; assay: FACS, competition: Bio-CD155-His to CHO-K1 human TIGIT
Procedure: The collected cells were washed once with PBS (Hyclone, CAT #SH30256), resuspended to 2×10⁵/40 μL with 1% BSA-PBS. The antibodies were diluted to 210 nM with 1% BSA-PBS (diluted by 3-fold serial dilution for 12 concentration points). […] The 40 μL cells were then mixed with 40 μL diluted antibodies and 40 μL diluted Bio-CD155-His, and then incubated at 4° C. for 60 minutes. The cells were washed twice with PBS, resuspended with APC labeled streptavidin (dilution ratio 1:1700, Biolegend, 405243), 100 μL/well, and incubated at 4° C. for 40 minutes. The cell samples were washed twice with PBS, resuspended with 1% BSA-PBS, 100 μL/well and then analyzed by flow cytometry (BD, Canto II). […] [0300] (d) The effect of anti-TIGIT chimeric antibodies blocking the interaction between TIGIT ECD-mFc and CHO-K1 CD155 detected by FACS

T5 sequence (chain, as listed by the source limits assumed): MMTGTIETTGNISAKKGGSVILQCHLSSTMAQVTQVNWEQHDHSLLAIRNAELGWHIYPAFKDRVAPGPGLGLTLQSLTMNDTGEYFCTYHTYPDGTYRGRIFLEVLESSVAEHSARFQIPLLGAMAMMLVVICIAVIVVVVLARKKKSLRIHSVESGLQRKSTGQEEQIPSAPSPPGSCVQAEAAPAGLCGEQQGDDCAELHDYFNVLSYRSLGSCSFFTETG

B1: SRF813-hIgG1 (antibody, V domains shown)
VH: QVQLVQSGAEVKKPGSSVKVSCKASGGTFSSAAISWVRQAPGQGLEWMGNIIPIVGIANYAQKFQGRVTITADESTSTAYMELSSLRSEDTAVYYCARDTGRGYTRHFWFDPWGQGTLVTVSS
VL: DIQMTQSPSSLSASVGDRVTITCRASQSISSYLNWYQQKPGKAPKLLIYAASSLQSGVPSRFSGSGSGTDFTLTISSLQPEDFATYYCQQSDILYTFGGGTKVEIK
notes: human IgG1 format by its name
IC50 (read off the curve) [1]: ~1 nM

B2: PVRIG-A105 (VHH)
VHH: EVQLVESGGGLVQAGGSLRLSCAASGRTFDRHTMTWFRQAPGKEREFVATASRIPGDTYYSHSVKGRFTISRDNAKNTVYLQLNNLKPEDTAVYYCAATSAYCSEVDCYEKGSWYDNWGQGIQVTVSS
notes: tested as VHH-hinge-CH2-CH3 (human IgG1-Fc); not shown: human IgG1 hinge-CH2-CH3
IC50 (read off the curve) [2]: ~0.7 nM

B3: RG6058-hIgG1 (antibody, V domains shown)
VH: EVQLQQSGPGLVKPSQTLSLTCAISGDSVSSNSAAWNWIRQSPSRGLEWLGKTYYRFKWYSDYAVSVKGRITINPDTSKNQFSLQLNSVTPEDTAVFYCTRESTTYDLLAGPFDYWGQGTLVTVSS
VL: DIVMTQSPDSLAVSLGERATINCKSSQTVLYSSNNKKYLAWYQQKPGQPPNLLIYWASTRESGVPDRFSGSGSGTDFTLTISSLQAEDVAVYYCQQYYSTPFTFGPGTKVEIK
notes: human IgG1 format by its name; also called Roche RG6058; control antibody RG6058
Kd [3]: 0.163 nM | koff [3]: 0.000147 s⁻¹ | kon [3]: 903000 M⁻¹ s⁻¹ | EC50 [4]: 0.673 nM | EC50 (read off the curve) [5]: ~1 nM | IC50 [6]: 0.388 nM
